Measured values from article PMC3631186.

Legend:
[1] = molecular target: p24 of HIV-1 MJ4 virus (from the infectious clone) (HIV-1 strain BMJ4 (subtype C)); experiment: non-reducing SDS-PAGE
[2] = molecular target: HIV-1 p24 capsid protein from the BMJ4 strain (recombinant, full-length) (HIV-1 strain BMJ4 (subtype C)); experiment: AUC; sedimentation velocity, 0.9 mg/ml in phosphate-buffered saline pH 7.4, 20°C, 45,000 rpm; c(s) scaled to c(M)
[3] = molecular target: HIV-1 p24 capsid protein from the BMJ4 strain (recombinant, full-length) (HIV-1 strain BMJ4 (subtype C)); experiment: SEC; analytic gel filtration, G5000PWxl column in phosphate-buffered saline pH 7.4, 0.5 ml/min, Agilent1200 HPLC
[4] = molecular target: HIV-1 p24 capsid protein from the BMJ4 strain (recombinant, full-length) (HIV-1 strain BMJ4 (subtype C)); experiment: crystal structure
[5] = molecular target: HIV-1 p24 capsid protein from the BMJ4 strain (recombinant, full-length) (HIV-1 strain BMJ4 (subtype C)); experiment: non-reducing SDS-PAGE; recombinant p24 proteins; loading buffer with 0.1% SDS, no BME, sample not boiled; called native gel in the text
[6] = molecular target: C-terminal domain (CTD) of BMJ4 p24 (HIV-1 strain BMJ4 (subtype C)); experiment: non-reducing SDS-PAGE; C-terminal domain of BMJ4 p24 in non-reducing condition

With “p24 of HIV-1 MJ4 virus (from the infectious clone) (natural protein)” the stoichiometry N [1] was 2.

“HIV-1 p24 capsid protein from the BMJ4 strain (recombinant, full-length) (natural protein)” was tested, and the stoichiometry N [2] was 2, the stoichiometry N [3] was 2 and the stoichiometry N [4] was 2. The stoichiometry N [5] was 2.

“C-terminal domain (CTD) of BMJ4 p24 (domain or fragment)” gave a stoichiometry N [6] of 2.
